Blank lines part the entries; values can stand above or below the binder they belong to.
Tests used:
[1] = target: Recombinant extracellular domain of human RON (rhRON) (human, UniProt Q04912)
[2] = target: full-length human RON expressed on HEK293T cells (HEK293T-hRON) (Homo sapiens, UniProt Q04912)
full-length human RON expressed on HEK293T cells (HEK293T-hRON), sequence (Q04912 25-1400): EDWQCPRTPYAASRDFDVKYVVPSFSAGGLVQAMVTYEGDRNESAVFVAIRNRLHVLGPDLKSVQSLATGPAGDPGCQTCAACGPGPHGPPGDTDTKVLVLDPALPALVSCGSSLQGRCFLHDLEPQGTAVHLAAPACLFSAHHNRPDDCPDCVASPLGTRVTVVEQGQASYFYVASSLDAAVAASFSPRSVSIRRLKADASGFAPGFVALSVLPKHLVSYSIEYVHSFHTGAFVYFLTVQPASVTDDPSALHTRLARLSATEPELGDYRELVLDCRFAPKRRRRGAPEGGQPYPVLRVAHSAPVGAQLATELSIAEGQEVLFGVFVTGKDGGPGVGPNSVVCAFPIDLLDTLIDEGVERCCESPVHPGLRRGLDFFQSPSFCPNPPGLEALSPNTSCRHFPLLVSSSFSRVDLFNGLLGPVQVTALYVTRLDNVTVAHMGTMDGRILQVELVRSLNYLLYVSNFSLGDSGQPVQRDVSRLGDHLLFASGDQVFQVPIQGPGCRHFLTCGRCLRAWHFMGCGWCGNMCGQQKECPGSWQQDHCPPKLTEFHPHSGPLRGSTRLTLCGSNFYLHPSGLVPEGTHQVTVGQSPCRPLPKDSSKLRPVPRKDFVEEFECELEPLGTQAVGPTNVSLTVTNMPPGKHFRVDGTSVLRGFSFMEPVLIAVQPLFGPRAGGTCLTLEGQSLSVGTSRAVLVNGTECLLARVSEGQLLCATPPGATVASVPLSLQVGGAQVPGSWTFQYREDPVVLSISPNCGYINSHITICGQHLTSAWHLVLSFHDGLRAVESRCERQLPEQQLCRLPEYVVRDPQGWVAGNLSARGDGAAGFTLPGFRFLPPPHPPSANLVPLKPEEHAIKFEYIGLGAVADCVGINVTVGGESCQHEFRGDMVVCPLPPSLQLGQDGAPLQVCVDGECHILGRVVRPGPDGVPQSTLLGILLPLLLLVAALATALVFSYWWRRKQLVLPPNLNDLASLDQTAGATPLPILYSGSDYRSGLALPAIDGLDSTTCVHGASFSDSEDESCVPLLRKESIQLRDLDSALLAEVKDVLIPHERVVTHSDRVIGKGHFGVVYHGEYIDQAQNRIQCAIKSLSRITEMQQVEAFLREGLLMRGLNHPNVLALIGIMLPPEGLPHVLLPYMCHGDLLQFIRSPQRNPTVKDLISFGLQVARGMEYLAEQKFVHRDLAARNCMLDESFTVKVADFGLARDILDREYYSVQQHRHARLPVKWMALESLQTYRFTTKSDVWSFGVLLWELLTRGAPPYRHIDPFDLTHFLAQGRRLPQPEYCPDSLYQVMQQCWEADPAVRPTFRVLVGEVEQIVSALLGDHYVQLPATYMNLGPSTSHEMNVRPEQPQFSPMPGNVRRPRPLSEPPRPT

Recombinant extracellular domain of human RON (rhRON), sequence (Q04912 25-957): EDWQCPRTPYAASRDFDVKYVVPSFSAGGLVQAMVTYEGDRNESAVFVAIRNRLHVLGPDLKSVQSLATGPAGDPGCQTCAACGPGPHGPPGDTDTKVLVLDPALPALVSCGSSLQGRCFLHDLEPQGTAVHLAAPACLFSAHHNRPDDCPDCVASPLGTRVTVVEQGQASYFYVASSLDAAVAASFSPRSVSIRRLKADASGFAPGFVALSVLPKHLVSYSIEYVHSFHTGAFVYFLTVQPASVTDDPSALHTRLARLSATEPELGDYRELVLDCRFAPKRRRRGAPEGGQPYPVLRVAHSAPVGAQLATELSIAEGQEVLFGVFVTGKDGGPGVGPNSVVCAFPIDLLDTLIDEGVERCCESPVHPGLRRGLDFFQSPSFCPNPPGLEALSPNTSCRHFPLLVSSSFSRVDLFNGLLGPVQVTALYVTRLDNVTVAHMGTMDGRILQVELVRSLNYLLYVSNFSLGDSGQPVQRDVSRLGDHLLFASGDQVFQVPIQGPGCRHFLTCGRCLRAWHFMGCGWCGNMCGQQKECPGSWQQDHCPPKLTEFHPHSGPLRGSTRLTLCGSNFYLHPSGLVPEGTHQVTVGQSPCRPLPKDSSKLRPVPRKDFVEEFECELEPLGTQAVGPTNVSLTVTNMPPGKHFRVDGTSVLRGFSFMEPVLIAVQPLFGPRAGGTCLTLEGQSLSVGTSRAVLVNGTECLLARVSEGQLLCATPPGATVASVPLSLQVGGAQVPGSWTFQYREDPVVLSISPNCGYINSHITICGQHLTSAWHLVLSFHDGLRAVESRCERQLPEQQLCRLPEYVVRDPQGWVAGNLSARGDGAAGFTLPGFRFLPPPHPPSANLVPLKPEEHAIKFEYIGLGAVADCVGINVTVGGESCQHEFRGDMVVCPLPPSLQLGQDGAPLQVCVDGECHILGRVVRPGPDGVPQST

binding result [1]: binds | binding result [2]: binds
B1: 11B09 (VHH)
VHH: EVQLVESGGGLVQAGGSLRLSCAASGRTFSNYAMGWFRQAPGKERDFVAAIDWSGDSISYENTVKGRFTISRDNAKNTMYLQMNSLKPEDTAVYFCATRSVGGISTLRRRYDYWGQGTLVTVSS

binding result [1]: binds | binding result [2]: binds
B2: KY704039 (VHH)
VHH: EVQLVESGGGLVQAGGSLRLTCAASGNFFNIITMGWFRQAPGKERELVAVDTAGRSISYLDSVKGRFTIVRDNAKNTVILEMNSLTPEDTAVYYCYATGHRSVTGGIYVTWGQGTLVTVSS

binding result [2]: binds
B3: KY704051 (VHH)
VHH: EVQLVESGGGLVQPGGSLRLSCAASGFAFSYYYMYWVRQAPGKGLEWVSRISPGGGTTYYADSVKGRFTISRDNAKNTLYLQMNSLNSEDTAVYYCAKDNRRLIDSGAYDYRGQGTLVTVSS

binding result [1]: binds | binding result [2]: binds
B4: 5F06 (VHH)
VHH: EVQLVESGGGLVQAGGSLGLSCAASGRVAMGWFRRPPGQERDFVAAISASGATTYYADSVKGRFTISRDSAKTTVYLQMNSLKPEDTAVYYCAARLSWSSDYRSGGSYEHWGQGTQVTVSS

binding result [1]: binds | binding result [2]: binds
B5: 11D08 (VHH)
VHH: EVQLVESGGGLVQPGGSLRLSCAASGFTFSSYWMYWVRQAPGKGLEWVSAISPASGSVDYIDSVKGRFTISRDNAQNTLYLRMNSLKSEDTAIYYCAKDSRRLIRSNYETFGLGTQVTVSS

binding result [1]: binds | binding result [2]: binds
B6: 8C03 (VHH)
VHH: EVQLVESGGGFVQAGGSLRLSCAASVRIAMGWFRQAPGKEREFVARISASGGSTEYADSVKGRFTISRDSSKSTAYLQMNSLKPEDTAVYYCAARLWNQREYPYWGQGTQVTVSS

binding result [1]: binds | binding result [2]: binds
B7: 11A09 (VHH)
VHH: EVQLVESGGGLVQPGGSLRLSCAASGFTFSSYWMYWVRQAPGKGLEWVSAVNTGGGTTDYADSVKGRFTISRDNAKDTLYLQMNSLKYEDTAVYYCARDQRRYIRTTYDYHGQGTLVTVSS

binding result [1]: binds | binding result [2]: binds
B8: 5B10 (VHH)
VHH: EVQLVESGGGLVQAGGSLRLSCATSGRYVMGWFRQAPGQEREFVTSISRSGGSTTYADSVKGRFTISRDSAENTVYLQMNSLKPEDTAVYYCAAWSYYGVAYTSTTSPDYWGQGTLVTVSS

binding result [1]: binds | binding result [2]: binds
B9: 11F03 (VHH)
VHH: EVQLVESGGGLVQAGGSLRLSCVVSGIYFRLYTMNWYRQALGKQREYVAMITNDGSTNYGASIKGRFTISRDNAKNTVYLQMNNLNPEDTAVYYCNAHDYWGQGTQVTVSS

binding result [1]: binds
B10: KY704065 (VHH)
VHH: EVQLVESGGGLVQAGGSLRLSCAVSNTVFRLRTMDWYRQAPEKRREWVATITSDGSTDYVGAVKGRFTISRDNAKSTMYLQMNNVKPEDTAVYYCYTANFWGQGTLVTVSS

binding result [1]: binds | binding result [2]: binds
B11: 2A01 (VHH)
VHH: EVQLVESGGGLVQAGGSLRLSCAASSRTFSTYPMAWFRQAPGKEREFVATISRGGITSYYADSVKGRFTISRDNAKNTVYLQMNSLKPEDTAVYYCAQYKASATAYTRGRPDEIVHWGQGTQVTVSS

binding result [1]: binds | binding result [2]: binds
B12: KY704038 (VHH)
VHH: EVQLVESGGGLVQAGGSLRLSCASSGIAFRLRTMDWYRQAPGNQREWVATITSDYSTDYADSVKGRFTISRDNAQNTVYLQMNSLKPEDTAVYYCHAGGVVWGQGTLVTVSS

binding result [1]: binds | binding result [2]: binds
B13: 2C01 (VHH)
VHH: EVQLVESGGGLVQAGGSLRLSCAPSERTFRSDVMGWFRQAPGRGREFVAAIAENGDILTRFEGSAKGRFTISRDNANDTVYLQMSSLKPEDTAIYYCAARWGTITTVSHQYHFWGQGTQVTVSS

binding result [1]: binds | binding result [2]: binds
B14: 2A02 (VHH)
VHH: EVQLVESGGGTVKAGGSLRLSCAAPRRYHMGWFRQAPGKEREFVTAISSSGGSTSYADSVKGRFTISRDSAKSTVYLQMNSLKPEDTAVYFCAARSGLWMATSTQGHYDYWGQGTQVTVSS

binding result [1]: binds
B15: KY704063 (VHH)
VHH: EVQLVESGGGLVQPGGSLTLSCVAYGITVPDYPIGWFRQSPGKEREGVSCIRRSGGRIVYSDSAKGRFNTSRDNAENTVYLQMNSLAPEDTAVYYCATKCMVEFGDTTYSDYAGLNYWGKGTLVTVSS

binding result [1]: binds | binding result [2]: binds
B16: 2F08 (VHH)
VHH: EVQLVESGGGLVQAGGSLRLSCAASGRYPMGWFCQAPGGEREFVAAISRSGASTYYADSVKGRFTIARDSAKNTVYLEMNSLKPEDTAVYYCAAKENYYGDYGLAQNYDYWGQGTQVTVSS

binding result [1]: binds | binding result [2]: binds
B17: 8G04 (VHH)
VHH: EVQLVESGGGLVQAGGSLRLSCAASGRTFSVYPMGWFRQAPGKEREFVATISRRGAISYYQDSVKGRFTISRDSANDTVYLQMNSLRPEDTAVYYCAQYKASSSSYTRGRPDEIVYWGQGTQVTVSS

binding result [1]: binds | binding result [2]: binds
B18: 2B10 (VHH)
VHH: EVQLVESGGGLVQAGGSLRLSCATSGISFRLSNMGWYRQAPGKSREFVAEITSGGNWNYADSVKGRFTISRDNAKSTVYLQMNSLKPEDTGVYYCNRLGTPLWGQGTQVTVSS

binding result [1]: binds | binding result [2]: binds
B19: KY704042 (VHH)
VHH: EVQLVESGGGLVQAGGSLRLSCAASGRSFGSYHMGWFRQALGKEREFVAAISSGGGLLDYEDSVKGRFTISRDNAKNTVYLQMNSLTPEDTAVYYCAATARVWGSWFTSDYDYWGQGTLVTVSS

binding result [1]: binds | binding result [2]: binds
B20: 2D04 (VHH)
VHH: EVQLVESGGGLVQAGGSLRLSCAASGRIFSVYRVGWFRQAPGKEREIVASINNRNGASTFYADSVKGRFTISRDSAKNTVYLQMRSLRPEDTAVYYCAARDQGTTEYHYWGQGTLVTVSS

binding result [1]: binds | binding result [2]: binds
B21: 2F12 (VHH)
VHH: EVQLVESGGGLVQAGGSLRLSCAASGSSTYEMGWFRQAPGKEREFVAGINWNGGRTYYADSVKGRFTISRDNAKMTVYLQMNSLKPEDTAAYYCSAAYGLRDAFRMYRSEYPYWGQGTQVTVSS

binding result [1]: binds | binding result [2]: binds
B22: 11G07 (VHH)
VHH: EVQLVESGGGLVQAGGSLRLSCAASGRSFSGDTMGWFLQAPGKEREFVAGINWSSRSTNYADSVKGRFTISRDNAKNTVYLQMNTLKPEDTAVYYCAAGPPSPYIYSRPDLYTYWGQGTQVTVSS

binding result [1]: binds | binding result [2]: binds
B23: 11G10 (VHH)
VHH: EVQLVESGGGSVQAGGSLRLSCAASGRVAMGWFRQAPGKEREFVAAISASGGSSSYADSVKGRFTISRDSAKSTVYLQMNSLEPEDTAVYYCAARARTLGWVSADVSAYDYWGQGTQVTVSS

binding result [1]: binds | binding result [2]: binds
B24: 8D02 (VHH)
VHH: EVQLVESGGGLVQTGGSLRLSCAASGLTFSDYAMGWFRQAAGKEREFVGVISWGGRHTYYGDFAKGRFTISRENSKNTVYLQMNSLKPEDTAVYTCARKRGMADIAYTHATSYDYWGQGTQVTVSS

binding result [1]: binds | binding result [2]: binds
B25: 2C11 (VHH)
VHH: EVQLVESGGGLVQPGGSLRLSCAASGFTFNYYWMYWVRQRPGKGLEWVSAINTGGGTTDYADSVKGRFTISRDNAKSTLYLQMDSLKSEDTAVYYCAKDRRRLIRSEYDYLGQGTQVTVSS

binding result [1]: binds | binding result [2]: binds
B26: 8B01 (VHH)
VHH: EVQLVESRGGTVQAGGSLRLSCAASGRTFSNYAAGWFRQAPGKEREFVAGISAKGGVTYYVDFVKGRFTISRDNAKNTVYLQMNSLKPEDTAVYYCAADGSYGTILATIAENSRISLLKDWGQGTLVTVSS

binding result [1]: binds | binding result [2]: binds
B27: 8E08 (VHH)
VHH: EVQLVESGGGLVQPGGSLRLSCAASGFTLDNHAIGWFRRAPGKERERIGCISSSSGTTAYADSVEGRFTISRDNAKNTVYLQMNSLKPEDTAVYYCAARFQGGFLGCTFAPQTFGYWGQGTQVTVSS

binding result [1]: binds | binding result [2]: binds
B28: 5B04 (VHH)
VHH: EVQLVKSGGGLVQVGGSLRLSCAASGRTFSSYAMGWFRQAPGKERELVAAINWNGGRTYYADFVKGRFTISRDNAKNTVYLQMNSLKPEDTAVYYCAAGHLTSTGVLHPADYYNWDEYDYWGQGTQVTVSS

binding result [1]: binds | binding result [2]: binds
B29: 11G06 (VHH)
VHH: EVQLVESGGGLVQPGGSLRLSCAASGSIFSVNAMGWYRQAPGKQRELVASMVSGRSPAYADSVKGRFTISRDNAENTVYLQMNSLKPEDTAVYYCNIKGEYYSRSQYNVWGQGTQVTVSS

binding result [1]: binds | binding result [2]: binds
B30: KY704041 (VHH)
VHH: EVQLVESGGGLVQAGGSLRLSCAASGRAFSSYAMGWFRQAPGKEREFVAVISGRGGVTYYAASVKGRFTISRDNAKNTVLLQMSSLKPEDTGVYYCAAGPNIGVLTDPAYSGGDWGQGTLVTVSS

— PMC5385344, “Large Diversity of Functional Nanobodies from a Camelid Immune Library Revealed by an Alternative Analysis of Next-Generation Sequencing Data” (Frontiers in Immunology, 2017)
